# B1: JAM-AP: control AP fusion protein containing the extracellular domain of junction adhesion molecule (protein)
# chain: SVTVHSSEPEVRIPENNPVKLSCAYSGFSSPRVEWKFDQGDTTRLVCYNNKITASYEDRVTFLPTGITFKSVTREDTGTYTCMVSEEGGNSYGEVKVKLIVLVPPSKPTVNIPSSATIGNRAVLTCSEQDGSPPSEYTWFKDGIVMPTNPKSTRAFSNSSYVLNPTTGELVFDPLSASDTGEYSCEARNGYGTPMTSNAVRMEAVERNVGV
# modifications: left off: large carriers
# notes: control AP fusion protein containing the extracellular domain of junction adhesion molecule
# Target: T1, CD47-SIRPα1 binding (CD47-AP / SIRPα1-GST) (Homo sapiens, UniProt P78324)
# T1 construct: Microtiter plates were coated with SIRPα1 extracellular domain fusion protein (SIRPα1-GST, 1 μg/ml) for 2 hr; A construct consisting of the extracellular domain of human CD47 fused to the catalytic domain of human placental AP; made in house
# Assay: CD47-AP binding to immobilized SIRPα1-GST (alkaline phosphatase activity)
# Details: SIRPα-GST coated 2 μg/ml, CD47-AP 1-2 μg/ml
# Procedure: FIG. 2C (right panel) is a bar graph that illustrates CD47-AP specifically binds to SIRPα-GST fusion protein but not SIRPβ-GST. In this panel, microtiter plates were coated with either SIRPα-GST or highly similar SIRPβ-GST (10 μg/ml) followed by blocking with BSA. To each well was then added recombinant CD47-AP followed by washing. Bound CD47-AP was then detected by assay for alkaline phosphatase after addition of appropriate substrate.
# FIGS. 6A-6C are graphs that illustrate the effects of synthetic peptides on CD47-SIRPα binding. FIG. 6A illustrates the effect of peptide C5/D5.1 on CD47-SIRPα binding. […] After blocking, CD47-AP was added in the absence or presence of synthetic peptides C5/D5.1 and control peptides C5/D5.4, C5/D5.11 and C5/D5.12 (used as 1 mM each). “*” p<0.01. CD47-AP binding was then detected by assay of alkaline phosphatase activity and normalized with respect to binding in the absence of any peptide (CD47-AP only). FIG. 6B illustrates the effect of dose-dependent inhibition of CD47-SIRPα1 binding by peptide C5/D5.1 performed as in FIG. 6A but with increasing concentrations of peptide as indicated. […] Binding of these proteins were detected by a goat anti-GST antibody followed by peroxidase conjugated anti-goat secondary (for detecting SIRPα1-GST) or directly developed for alkaline phosphatase activity (for detecting CD47-AP). […]
# T1 sequence (P78324 31-373 limits assumed): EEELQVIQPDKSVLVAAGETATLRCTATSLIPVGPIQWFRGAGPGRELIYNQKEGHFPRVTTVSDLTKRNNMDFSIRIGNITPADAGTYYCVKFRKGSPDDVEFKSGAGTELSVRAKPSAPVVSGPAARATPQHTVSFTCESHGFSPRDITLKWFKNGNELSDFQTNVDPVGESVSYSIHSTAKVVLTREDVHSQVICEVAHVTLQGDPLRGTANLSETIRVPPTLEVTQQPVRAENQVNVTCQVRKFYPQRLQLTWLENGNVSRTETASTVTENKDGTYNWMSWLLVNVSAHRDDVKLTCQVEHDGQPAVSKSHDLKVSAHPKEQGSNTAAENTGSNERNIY
molecule,measurement,value
B1,"binding of AP fusion protein to SIRPα-GST (AP activity, OD405)",absence of binding
